Results taken from US20250164464A1, “LIVER ORGANOID-DERIVED CULTURED HEPATOCYTES” (OSAKA UNIVERSITY, priority 2022, published 2025).

Tests used:
CYP1A2 = test: Induction of drug-metabolizing enzyme in hepatocytes (2D differentiated cells) (Example 6); type: cell-based, human; settings: 50 μM for 24 hours; added on third, sixth or ninth day of culture; control DMSO
Experimental: (§1) In this Example, the hepatocytes (2D differentiated cells) of the present invention were evaluated for the induction of a drug-metabolizing enzyme on the third day, sixth day, and ninth day of their culture (FIG. 6A). […] After that, the ΔCt value ((Ct value of GAPDH)-(Ct value of target gene)) of each CYP gene was measured for each cell. As a control, dimethylsulfoxide (DMSO) serving as a solvent for each metabolizing enzyme activator was added thereto.

CYP2B6 = test: as above; settings: 1 mM for 24 hours; added on third, sixth or ninth day of culture; control DMSO
Experimental: as §1

hepatic organoid cells [1] = test: Screening of monolayer culture conditions, sixth day of culture, quantitative RT-PCR (Example 3); type: cell-based, human; settings: versus third day of culture
Experimental: Culture conditions up to the sixth day of culture when hepatic organoid cells were subjected to monolayer culture with a HCM™ medium having added thereto each of various factors were investigated in the same manner as in each of Examples 1 and 2.
The hepatic organoid cells were seeded at 3.0×10^5 cells/well on a collagen-coated 48-well plate, and were differentiated with the HCM™ medium having added thereto the EMTi and BMP7 (50 ng/mL) described in Example 2 until the third day of the culture. […] The respective gene expression levels of ALB and CYP3A4 serving as liver cell markers after 6 days of two-dimensional culture were analyzed by a quantitative RT-PCR method. As a comparative example, the gene expression levels of PHHs cultured only with the HCM™ medium and iPS-HLCs were also identified in the same manner as in Example 1.
(§2) The respective gene expression levels of ALB and CYP3A4 were measured by a quantitative RT-PCR method for the respective cells after their culture. A gene expression level when the hepatic organoid cells were cultured only with the HCM™ medium having added thereto the above-mentioned EMTi was defined as a vehicle. Comparison was performed while the gene expression level of ALB of the cells cultured by using the EMTi and BMP7 (50 ng/mL) in combination on the third day of the culture was defined as 1.0.

hepatic organoid cells [2] = test: Screening of monolayer culture conditions, ninth day of culture, quantitative RT-PCR (Example 4); type: cell-based, human; settings: EMTi and FGF19 (100 ng/mL)
Experimental: The medium was replaced with a new one on the third day of the culture, and the cells were differentiated with the HCM™ medium having added thereto the EMTi and FGF19 (100 ng/mL) until the sixth day of the culture.
The respective gene expression levels of ALB and CYP3A4 serving as liver cell markers after 9 days of two-dimensional culture were analyzed by a quantitative RT-PCR method.
as §2, with “with the HCM™ medium having added thereto” for “by using”, “FGF19 (100” for “BMP7 (50”, “ng/mL)” for “ng/mL) in combination”, “sixth” for “third”

hepatic organoid cells [3] = test: Screening of monolayer culture conditions, third day of culture, EMTi and humoral factors, quantitative RT-PCR (Example 2); type: cell-based, human; settings: combined use of EMTi and BMP7 (50 ng/mL); 72 hours; vehicle (EMTi only)=1.0

`COc1ccc2[nH]c([S+]([O-])Cc3ncc(C)c(OC)c3C)nc2c1` (stereo not shown) [omeprazole] was tested, and the “gene expression level of CYP1A2 (ΔCt value)” value (CYP1A2) was “further enhanced”.

`CCC1(c2ccccc2)C(=O)NC(=O)NC1=O` [phenobarbital] was tested, and the “gene expression level of CYP2B6 (ΔCt value)” value (CYP2B6) was “further enhanced”.

In the case of fibroblast growth factor 19 [FGF19], the “gene expression level of CYP3A4 increased by a factor of” value (hepatic organoid cells [1]; EMTi and FGF19 (100 ng/ml)) is reported as “about 95”, the “gene expression level of CYP3A4 increased by a factor of” value (hepatic organoid cells [2]; versus sixth day of culture) is reported as “about 40” and the “gene expression level of ALB” value (hepatic organoid cells [2]; versus sixth day of culture (=1.0)) is reported as “increasing tendency”.

B1: bone morphogenetic protein 7 (protein, UniProt P18075 293-431, looked up)
Bone morphogenetic protein 7: STGSKQRSQNRSKTPKNQEALRMANVAENSSSDQRQACKKHELYVSFRDLGWQDWIIAPEGYAAYYCEGECAFPLNSYMNATNHAIVQTLVHFINPETVPKPCCAPTQLNAISVLYFDDSSNVILKKYRNMVVRACGCH
notes: recombinant protein added as a humoral factor
For B1, the “gene expression level of CYP3A4 increased by a factor of” value (hepatic organoid cells [3]) was 50 and the “gene expression level of CYP3A4 increased by a factor of” value (hepatic organoid cells [1]; EMTi and BMP7 (50 ng/ml)) was “about 50”.
